Data: article PMC8115157

What was measured:
Conditions in all cases: remark: other sources report otherwise
[1] = target: T1, full-length human calcium-sensing receptor (CaSR) (human), P41180; assay: cryo-EM structure; single-particle cryo-EM of CaSR in DDM/CHS, 20 mM HEPES pH 7.5, 150 mM NaCl, 20 mM CaCl2 (three classes: closed-closed CaSR^Ca 3.8 Å, open-closed 5.6 Å, open-open 7.3 Å)
T1 chain: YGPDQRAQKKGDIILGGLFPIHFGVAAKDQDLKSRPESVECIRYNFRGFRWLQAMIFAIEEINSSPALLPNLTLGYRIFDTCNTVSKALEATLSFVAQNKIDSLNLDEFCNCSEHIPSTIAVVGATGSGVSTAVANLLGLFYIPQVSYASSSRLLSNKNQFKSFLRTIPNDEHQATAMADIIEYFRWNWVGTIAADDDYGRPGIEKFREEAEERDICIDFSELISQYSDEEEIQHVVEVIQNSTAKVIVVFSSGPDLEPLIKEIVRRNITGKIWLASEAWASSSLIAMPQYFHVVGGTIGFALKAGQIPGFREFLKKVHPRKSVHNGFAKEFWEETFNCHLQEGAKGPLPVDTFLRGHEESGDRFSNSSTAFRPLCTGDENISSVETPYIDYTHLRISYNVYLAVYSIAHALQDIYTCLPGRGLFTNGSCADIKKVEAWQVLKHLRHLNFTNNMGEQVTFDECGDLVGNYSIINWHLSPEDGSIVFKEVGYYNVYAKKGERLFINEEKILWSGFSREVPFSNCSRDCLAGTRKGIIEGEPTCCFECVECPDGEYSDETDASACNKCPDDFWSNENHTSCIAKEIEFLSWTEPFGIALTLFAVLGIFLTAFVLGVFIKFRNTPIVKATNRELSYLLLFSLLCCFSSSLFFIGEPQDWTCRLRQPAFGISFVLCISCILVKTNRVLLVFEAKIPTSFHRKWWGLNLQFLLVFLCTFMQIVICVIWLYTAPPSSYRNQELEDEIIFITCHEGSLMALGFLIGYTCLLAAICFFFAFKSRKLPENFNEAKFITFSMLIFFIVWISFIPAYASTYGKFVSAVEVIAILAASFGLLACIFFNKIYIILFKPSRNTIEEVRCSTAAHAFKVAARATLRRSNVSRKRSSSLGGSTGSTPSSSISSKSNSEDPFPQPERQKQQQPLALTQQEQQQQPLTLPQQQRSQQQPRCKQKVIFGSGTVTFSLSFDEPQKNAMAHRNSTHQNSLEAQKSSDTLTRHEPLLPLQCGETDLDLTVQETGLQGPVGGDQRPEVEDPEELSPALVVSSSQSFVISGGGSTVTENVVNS

[2] = target: T1, full-length human calcium-sensing …; assay: cryo-EM structure; single-particle cryo-EM of CaSR in DDM/CHS, 20 mM HEPES pH 7.5, 150 mM NaCl, with 10 mM L-Trp and 10 mM CaCl2 (active state, CaSR^Acc); 3.5 Å
[3] = target: T1, full-length human calcium-sensing …; assay: cryo-EM structure; single-particle cryo-EM of CaSR in DDM/CHS, 20 mM HEPES pH 7.5, 150 mM NaCl, 5 mM EDTA (inactive state; three classes Icc 4.5 Å, Ioc 5.7 Å, Ioo 6.8 Å)
[4] = target: T1, full-length human calcium-sensing …; assay: cryo-EM structure; single-particle cryo-EM of Ca^2+-free CaSR in DDM/CHS, 20 mM HEPES pH 7.5, 150 mM NaCl, 5 mM EGTA, with 10 mM L-Trp (CaSR^Trp); 4.4 Å

Measured: stoichiometry N

B1: full-length human calcium-sensing receptor (CaSR), P41180 20-1078 (receptor)
chain: T1 chain
modifications: here or on the partner: N-linked glycans (N-acetylglucosamine built) at N261, N287, N446, N468, N488 and N541; N-linked glycans (N-acetylglucosamine built) at N261, N287, N446, N468, N488 and N541
2: [1] | [2] | [3] | [4]
